From patent US6641994B2, “Methods of identifying anti-viral agents” (Pharmacia & Upjohn Company, priority 1999, dated 2003)
Where no end group is shown, it is not given here.

Assays:
[1] = biological target: T1, CDK2 (Homo sapiens, UniProt P20248+P24941); assay type: biochemical
T1 construct: hemagglutinin (HA); made in house; host or cells: Sf9 or High Five insect cells, baculovirus co-infection

[2] = biological target: T2, cyclin A/CDK2 (Homo sapiens, UniProt P20248+P24941); assay type: biochemical
T2 construct: hemagglutinin (HA); made in house; host or cells: Sf9 or High Five insect cells, baculovirus co-infection
T2 sequence (P20248 whole entry, one chain of several): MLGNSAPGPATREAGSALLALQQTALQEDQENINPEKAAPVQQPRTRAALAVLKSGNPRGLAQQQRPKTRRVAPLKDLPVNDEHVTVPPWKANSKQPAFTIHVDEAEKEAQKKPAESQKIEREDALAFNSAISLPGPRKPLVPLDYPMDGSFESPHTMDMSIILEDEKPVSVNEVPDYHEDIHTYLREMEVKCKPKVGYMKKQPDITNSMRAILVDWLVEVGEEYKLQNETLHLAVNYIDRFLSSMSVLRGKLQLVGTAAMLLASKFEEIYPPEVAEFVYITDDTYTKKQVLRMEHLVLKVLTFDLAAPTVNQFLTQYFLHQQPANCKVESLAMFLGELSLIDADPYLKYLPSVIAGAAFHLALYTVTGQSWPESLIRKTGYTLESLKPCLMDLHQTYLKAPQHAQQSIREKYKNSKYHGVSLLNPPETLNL

[3] = biological target: T3, pRb (Homo sapiens, UniProt P06400); test: E7 binding assay (GST-E7 on glutathione-agarose beads), pRb
T3 construct: purchased QED Bioscience Inc
T3 sequence (P06400 1-928): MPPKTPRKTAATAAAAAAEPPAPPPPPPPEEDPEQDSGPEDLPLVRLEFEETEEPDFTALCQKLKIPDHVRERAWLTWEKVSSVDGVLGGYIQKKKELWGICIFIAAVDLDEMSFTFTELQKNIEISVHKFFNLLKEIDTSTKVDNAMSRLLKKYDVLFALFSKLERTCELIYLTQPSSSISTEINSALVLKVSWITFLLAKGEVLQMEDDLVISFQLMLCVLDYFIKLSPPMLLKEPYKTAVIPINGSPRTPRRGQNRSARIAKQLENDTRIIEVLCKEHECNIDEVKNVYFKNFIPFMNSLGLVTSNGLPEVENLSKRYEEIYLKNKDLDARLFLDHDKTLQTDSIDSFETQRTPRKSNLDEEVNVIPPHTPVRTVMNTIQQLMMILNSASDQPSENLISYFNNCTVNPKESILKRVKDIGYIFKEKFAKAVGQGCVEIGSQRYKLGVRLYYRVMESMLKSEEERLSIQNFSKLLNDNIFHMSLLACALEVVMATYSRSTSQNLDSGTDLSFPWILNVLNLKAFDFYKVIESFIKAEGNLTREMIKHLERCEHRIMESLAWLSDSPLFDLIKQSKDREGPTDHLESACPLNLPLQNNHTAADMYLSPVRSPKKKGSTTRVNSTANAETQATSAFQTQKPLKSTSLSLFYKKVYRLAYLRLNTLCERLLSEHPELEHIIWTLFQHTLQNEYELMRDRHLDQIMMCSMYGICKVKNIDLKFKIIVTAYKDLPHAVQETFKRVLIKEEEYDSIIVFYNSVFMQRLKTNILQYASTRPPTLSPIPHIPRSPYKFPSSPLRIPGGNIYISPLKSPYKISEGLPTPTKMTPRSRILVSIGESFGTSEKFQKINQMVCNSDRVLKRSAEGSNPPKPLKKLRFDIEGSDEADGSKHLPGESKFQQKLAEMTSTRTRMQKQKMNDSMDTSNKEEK
Description: For HPV31E7, the amplification product was subcloned into pGEX-4T-3 previously digested with BamHI, while HPV6b and HPV16 E7 amplification products were subcloned into pGEX-4T-3 previously digested with BamHI and XhoI. Proper orientation was determined using restriction mapping, sequence analysis was carried out using Perkin-Elmer ABI-Prism® technology, and the expression constructs were individually transfected into a JM 109 strain of E. coli. Bacteria in log-growth phase were harvested by centrifugation after a four hour induction with 0.5 mM IPTG at 30° C. […] After extensive washing with PBS, the GST-E7-coupled beads were stored at 4° C. until use. Protein levels were measured using a BioRad protein assay kit, and purified protein preparations were examined by SDS-PAGE followed by Coomassie blue staining and Western blotting. […]
GST-16E7 or GST-31E7 fusion proteins bound to glutathione-agarose beads were incubated with either purified pRb (QED Bioscience Inc.), His-p21, His-p21N, His-p21C, His-p27, His-p27N, His-p27C, or HEK293 cell lysate at 4° C. for two hours in binding buffer containing 20 mM HEPES, pH 7.4, 10 mM KCl, 1 mM EDTA, 1 mM EGTA, 140 mM NaCl, 13% glycerol, 1 mM DTT, and 1× protease inhibitor tablet (Boehringer Mannheim). […] Eluted proteins were separated using 15% SDS-PAGE and the proteins were analyzed by Coomassie blue staining and Western blotting.

T1 sequence (P20248 whole entry, one chain of several): as the sequence (P20248 whole entry, one chain of several) above

GST-16E7 (16-38): internal HPV16 E7 region, residues 16-38, GST fusion
induced kinase activity, level relative to that by full length E7 [1]: 53%

GST-16E7(1-27): HPV16 E7 truncation, residues 1-27, GST fusion (MHGDTPTLHEYMLDLQPETTDLYCYEQ; also: GST fusion partner left off)
relative kinase activity compared to activity in the presence of full length E7 [1]: 28.64%
relative kinase activity compared to full length E7, repeat experiment [1]: 52%

GST-E7 (20-48): internal HPV16 E7 region, residues 20-48, GST fusion (TDLYCYEQLNDSSEEEDEIDGPAGQAEPD; also: GST fusion partner left off)
induced kinase activity, level relative to that by full length E7 [1]: 33%

GST-HPV16-E7(39-98): HPV16 E7 amino terminal deletion, residues 39-98, GST fusion (DGPAGQAEPDRAHYNIVTFCCKCDSTLRLCVQSTHVDIRTLEDLLMGTLGIVCPICSQKP; cysteine pairing not given here; also: GST fusion partner left off)
activation of cyclinA/CDK2, % of the activation activity of full length GST-HPV 16 E7 [2]: 28.6%
activation potential, repeat experiment [2]: 18%
induced kinase activity, level relative to that by full length E7 [1]: 18%

GST: glutathione-S-transferase alone, control for the fusion proteins [reference compound]
effect on cyclin A/CDK2 histone H1 kinase activity [2]: no effect

HPV E7(1-15): HPV16 E7 truncation, residues 1-15, GST fusion (MHGDTPTLHEYMLDL; also: GST fusion partner left off)
relative kinase activity compared to activity in the presence of full length E7 [1]: 15%

HPV E7(1-38): HPV16 E7 truncation, residues 1-38, GST fusion (MHGDTPTLHEYMLDLQPETTDLYCYEQLNDSSEEEDEI; also: GST fusion partner left off)
relative kinase activity compared to activity in the presence of full length E7 [1]: approximately 72%

HPV E7(1-48): HPV16 E7 truncation, residues 1-48, GST fusion (MHGDTPTLHEYMLDLQPETTDLYCYEQLNDSSEEEDEIDGPAGQAEPD; also: GST fusion partner left off)
relative kinase activity compared to activity in the presence of full length E7 [1]: 73.25%

B1: HPV E7(1-87): HPV16 E7 truncation, residues 1-87, GST fusion (protein)
chain: MHGDTPTLHEYMLDLQPETTDLYCYEQLNDSSEEEDEIDGPAGQAEPDRAHYNIVTFCCKCDSTLRLCVQSTHVDIRTLEDLLMGTL
modifications: left off: a dimerising Fc or GST
notes: HPV16 E7 truncation, residues 1-87, GST fusion
relative kinase activity compared to activity in the presence of full length E7 [1]: 76.67%

B2: GST-31E7: HPV31 E7 protein expressed as a GST fusion protein (protein)
chain: MRGETPTLQDYVLDLQPEATDLHCYEQLPDSSDEEDVIDSPAGQAEPDTSNYNIVTFCCQCKSTLRLCVQSTQVDIRILQELLMGSFGIVCPNCSTRL
modifications: left off: a dimerising Fc or GST
binding to pRb in HEK 293 cell lysate ([3]; HEK 293 cell lysate): bound
binding to purified pRb ([3]; purified pRb, SDS-PAGE, Coomassie and Western blot): bound
effect on cyclin A/CDK2 histone H1 kinase activity [2]: significant effect

B3: HPV E7(1-69): HPV16 E7 truncation, residues 1-69, GST fusion (protein)
chain: MHGDTPTLHEYMLDLQPETTDLYCYEQLNDSSEEEDEIDGPAGQAEPDRAHYNIVTFCCKCDSTLRLCV
modifications: also: GST fusion partner left off
notes: HPV16 E7 truncation, residues 1-69, GST fusion
relative kinase activity compared to activity in the presence of full length E7 [1]: 82.45%

B4: Δ12; Δ24, 26; Δ31, 32: E7 with combined point mutations Δ12, Δ24, 26 and Δ31, 32 (protein, UniProt P03129 1-98, looked up, variant M12* C24* E26* S31* S32*)
Protein E7: MHGDTPTLHEYLDLQPETTDLYYQLNDEEEDEIDGPAGQAEPDRAHYNIVTFCCKCDSTLRLCVQSTHVDIRTLEDLLMGTLGIVCPICSQKP
modifications: GST fusion
% Control Activation Exp. 2 [1]: 83.1%

B5: GST-HPV16-E7(9-98): GST-E7 construct encoding HPV16 amino acids 9-98 (protein)
chain: HEYMLDLQPETTDLYCYEQLNDSSEEEDEIDGPAGQAEPDRAHYNIVTFCCKCDSTLRLCVQSTHVDIRTLEDLLMGTLGIVCPICSQKP
modifications: left off: a dimerising Fc or GST
activation of cyclinA/CDK2, % of the activation activity of full length GST-HPV 16 E7 [2]: 64%

B6: GST-HPV16-E7(16-98): GST-E7 construct encoding HPV16 amino acids 16-98 (protein)
chain: QPETTDLYCYEQLNDSSEEEDEIDGPAGQAEPDRAHYNIVTFCCKCDSTLRLCVQSTHVDIRTLEDLLMGTLGIVCPICSQKP
modifications: left off: a dimerising Fc or GST
activation of cyclinA/CDK2, % of the activation activity of full length GST-HPV 16 E7 [2]: 53%

B7: HPV6b: low risk-derived E7 from HPV6b, expressed as a GST fusion protein (protein)
chain: MHGRHVTLKDIVLDLQPPDPVGLHCYEQLVDSSEDEVDEVDGQDSQPLKQHFQIVTCCCGCDSNVRLVVQCTETDIREVQQLLLGTLNIVCPICAPKT
modifications: left off: a dimerising Fc or GST
activation of CDK2 histone kinase activity [1]: 15.8 fold

B8: Δ12; Δ24, 26: E7 with combined point mutations Δ12 and Δ24, 26 (protein, UniProt P03129 1-98, looked up, variant M12* C24* E26*)
Protein E7: MHGDTPTLHEYLDLQPETTDLYYQLNDSSEEEDEIDGPAGQAEPDRAHYNIVTFCCKCDSTLRLCVQSTHVDIRTLEDLLMGTLGIVCPICSQKP
modifications: GST fusion
% Control Activation Exp. 1 [1]: 85.2%
% Control Activation Exp. 2 [1]: 93.5%
